Experimental data taken from article PMC12209146 (Cellular and Molecular Life Sciences: CMLS, 2025).

Molecular target: toxin B (TcdB) from Clostridioides difficile VPI 10,463 (Clostridioides difficile VPI 10,463, UniProt P18177 1-2366)
Experiment: co-sedimentation; in vitro precipitation assay: TcdB (50 ng, 2 ng/µl) with α-defensin-6 (6 µM) or Angie peptides (100 µM) in 25 µl PBS, 30 min at 37 °C; centrifuged 20 min, 14,000 rpm, 4 °C; supernatant and pellet immunoblotted for TcdB
Details: both partners purified

toxin B (TcdB) from Clostridioides difficile VPI 10,463, sequence (P18177 whole entry): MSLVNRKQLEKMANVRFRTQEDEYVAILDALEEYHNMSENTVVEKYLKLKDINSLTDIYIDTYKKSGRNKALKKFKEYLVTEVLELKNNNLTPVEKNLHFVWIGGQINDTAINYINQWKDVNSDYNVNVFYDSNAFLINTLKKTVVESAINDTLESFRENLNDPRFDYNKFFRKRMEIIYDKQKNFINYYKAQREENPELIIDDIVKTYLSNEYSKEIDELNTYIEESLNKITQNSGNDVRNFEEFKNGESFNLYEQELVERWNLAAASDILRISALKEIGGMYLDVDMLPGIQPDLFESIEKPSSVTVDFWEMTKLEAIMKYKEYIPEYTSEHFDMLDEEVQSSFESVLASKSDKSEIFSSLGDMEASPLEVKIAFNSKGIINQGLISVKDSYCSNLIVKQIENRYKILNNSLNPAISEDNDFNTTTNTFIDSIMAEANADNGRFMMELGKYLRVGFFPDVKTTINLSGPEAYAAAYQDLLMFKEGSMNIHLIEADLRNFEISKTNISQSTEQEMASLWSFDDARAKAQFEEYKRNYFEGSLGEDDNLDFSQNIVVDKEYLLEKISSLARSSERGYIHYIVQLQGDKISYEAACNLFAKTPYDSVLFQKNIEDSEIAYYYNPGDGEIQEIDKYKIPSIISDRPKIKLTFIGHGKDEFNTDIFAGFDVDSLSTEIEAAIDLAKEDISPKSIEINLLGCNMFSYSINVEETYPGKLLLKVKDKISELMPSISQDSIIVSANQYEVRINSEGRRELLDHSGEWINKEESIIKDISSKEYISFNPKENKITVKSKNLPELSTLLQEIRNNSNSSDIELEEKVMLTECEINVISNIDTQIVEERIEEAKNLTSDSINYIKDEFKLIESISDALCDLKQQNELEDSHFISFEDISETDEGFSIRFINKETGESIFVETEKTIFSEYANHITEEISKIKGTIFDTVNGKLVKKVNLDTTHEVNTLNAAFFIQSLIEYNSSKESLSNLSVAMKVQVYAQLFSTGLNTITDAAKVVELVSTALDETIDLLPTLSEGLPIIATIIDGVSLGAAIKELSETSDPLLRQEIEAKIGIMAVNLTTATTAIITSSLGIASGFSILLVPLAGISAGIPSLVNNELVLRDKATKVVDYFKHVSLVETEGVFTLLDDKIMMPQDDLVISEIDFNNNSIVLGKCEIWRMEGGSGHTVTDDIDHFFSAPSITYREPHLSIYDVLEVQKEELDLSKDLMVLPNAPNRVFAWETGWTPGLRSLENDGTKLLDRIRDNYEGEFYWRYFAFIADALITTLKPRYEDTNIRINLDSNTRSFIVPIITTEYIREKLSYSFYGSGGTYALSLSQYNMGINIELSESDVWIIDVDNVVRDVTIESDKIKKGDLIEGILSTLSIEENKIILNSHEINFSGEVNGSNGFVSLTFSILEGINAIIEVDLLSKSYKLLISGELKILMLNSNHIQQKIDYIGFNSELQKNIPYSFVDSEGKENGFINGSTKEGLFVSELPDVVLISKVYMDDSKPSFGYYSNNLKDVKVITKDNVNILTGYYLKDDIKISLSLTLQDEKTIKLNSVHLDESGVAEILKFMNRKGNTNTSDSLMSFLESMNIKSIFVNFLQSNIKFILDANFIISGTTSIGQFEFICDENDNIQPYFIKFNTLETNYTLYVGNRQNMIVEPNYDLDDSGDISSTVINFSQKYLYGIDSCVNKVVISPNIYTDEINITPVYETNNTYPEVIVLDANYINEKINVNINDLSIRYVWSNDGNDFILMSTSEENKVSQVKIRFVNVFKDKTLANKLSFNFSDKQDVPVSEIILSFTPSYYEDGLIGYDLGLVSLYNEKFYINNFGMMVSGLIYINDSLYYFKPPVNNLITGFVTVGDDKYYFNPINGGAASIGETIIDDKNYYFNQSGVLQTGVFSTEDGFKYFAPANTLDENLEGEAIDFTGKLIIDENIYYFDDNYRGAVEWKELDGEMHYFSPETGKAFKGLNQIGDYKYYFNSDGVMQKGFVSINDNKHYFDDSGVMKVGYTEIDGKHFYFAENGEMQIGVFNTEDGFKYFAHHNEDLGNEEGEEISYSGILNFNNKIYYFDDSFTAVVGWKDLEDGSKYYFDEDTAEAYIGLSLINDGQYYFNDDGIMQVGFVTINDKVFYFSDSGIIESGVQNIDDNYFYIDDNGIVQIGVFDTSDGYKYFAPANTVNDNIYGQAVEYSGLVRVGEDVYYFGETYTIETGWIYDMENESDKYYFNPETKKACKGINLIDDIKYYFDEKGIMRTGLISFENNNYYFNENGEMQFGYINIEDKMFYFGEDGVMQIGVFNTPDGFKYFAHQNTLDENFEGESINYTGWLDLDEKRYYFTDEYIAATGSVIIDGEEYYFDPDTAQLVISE

AFTCHCRRSCYSTEYSYGTCTVMGINHRFCCL (peptide, UniProt Q01524 69-100, looked up) [human peptide α-defensin-6]
binding result: binds
